Experiment [1] addresses His6-Prp43 (S. cerevisiae) (UniProt P53131).
The target is the same in experiment [2]. This is another data set of the same source.

Sequence of His6-Prp43 (S. cerevisiae) (P53131 whole entry): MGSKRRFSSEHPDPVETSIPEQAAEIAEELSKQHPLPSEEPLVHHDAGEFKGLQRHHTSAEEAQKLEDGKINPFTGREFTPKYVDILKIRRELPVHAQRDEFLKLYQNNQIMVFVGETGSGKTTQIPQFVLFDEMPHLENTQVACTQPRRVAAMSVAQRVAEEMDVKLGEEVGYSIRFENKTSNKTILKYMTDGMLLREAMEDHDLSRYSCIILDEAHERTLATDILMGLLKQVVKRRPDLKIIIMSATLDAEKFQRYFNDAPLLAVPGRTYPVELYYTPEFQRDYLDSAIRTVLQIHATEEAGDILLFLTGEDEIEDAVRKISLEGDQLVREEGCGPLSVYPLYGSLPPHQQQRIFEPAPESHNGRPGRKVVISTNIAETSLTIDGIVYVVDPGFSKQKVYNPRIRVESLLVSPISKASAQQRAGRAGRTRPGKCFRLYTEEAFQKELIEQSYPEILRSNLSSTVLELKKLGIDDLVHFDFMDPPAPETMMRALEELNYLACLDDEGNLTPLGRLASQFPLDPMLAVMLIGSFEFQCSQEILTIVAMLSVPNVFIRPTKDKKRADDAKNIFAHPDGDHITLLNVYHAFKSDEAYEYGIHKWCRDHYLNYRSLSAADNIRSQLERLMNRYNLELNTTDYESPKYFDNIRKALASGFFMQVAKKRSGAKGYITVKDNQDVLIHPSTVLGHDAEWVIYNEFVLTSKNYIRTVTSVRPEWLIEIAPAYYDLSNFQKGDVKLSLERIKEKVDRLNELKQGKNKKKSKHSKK

As to GST-Pxr1^G (domain or fragment), the ATPase activity of the Prp43-P^G fusion against Prp43 with an equimolar amount of Pxr1^G in experiment [1] is 2 fold.
Take GST-Tma23^G (domain or fragment): the stimulation of Prp43 ATPase activity by Tma23^G added at a 1:1 or 10:1 molar ratio (NADH-coupled assay, 2.5 mM ATP) in experiment [2] was found to be 3 fold. In experiment [1], this substance registered an ATPase activity of the Prp43-T^G fusion against Prp43 with an equimolar amount of Tma23^G of 30 fold.

The record behind these values is PMC11584650, “An inhibitory segment within G-patch activators tunes Prp43-ATPase activity during ribosome assembly” (Nature Communications, 2024).
